What all share (type): cell-based, C57BL/6J mice
The test system of test [1] is Naïve CD4 T-cells. Nature of the test: In vitro T-cell differentiation in DC conditioned medium, IL-17/IL-10 in supernatants by ELISA. Conditions: DC derived from MyD88−/−Trif−/− and Tlr4−/− mice; TGF-β concomitantly present. Here is the method:
Bone marrow (BM)-derived GM-CSF DC cultures were grown in RPMI supplemented with GM-CSF and 5% foetal bovine serum (FBS), plus 100 μg/mL penicillin, 100 μg/mL streptomycin, 2 mM L-glutamine, 10 mM HEPES, 1 nM sodium pyruvate, 1×MEM nonessential amino acids, and 2.5 μM β-mercaptoethanol (all from Sigma-Aldrich, St. Louis, Mo.), as previously dcseribed^1. Semi-adherent cells were harvested on ice on day 5 and re-plated immediately in fresh GM-CSF medium at 1×10^6 cells/well in 24-well tissue culture-treated plates. Soluble or phagocytic stimuli were added right away to the plates in the same medium and the cells were centrifuged for 2 min at 2000 rpm. Supernatants (conditioned medium, CM) were collected after 18 hours. LPS (from E. coli, serotype 055:B5, L-2880) was purchased from Sigma-Aldrich. BMDC were treated with various doses of soluble LPS or 2:1 A20 LPS blasts:DC to titrate the LPS such that levels of IL-6 produced by DC in response to these stimuli was similar. Soluble LPS was used at a final concentration of 1 ng/mL. The A20 B-cell line was obtained from the ATCC (TIB-208). A20 LPS blasts were prepared by culturing A20 cells at 1×10^6 cells/mL, 3 mL/well in 6-well tissue culture plates for four days in RPMI medium supplemented with 10% FBS, with 100 μg/mL penicillin, 100 μg/mL streptomycin, 2 mM L-glutamine, 10 mM HEPES, 1 nM sodium pyruvate, plus 25 μg/mL LPS, as previously described in Blander, J. M. and Medzhitov, R. (2004) Science 304(5673):1014. […] Cells were centrifuged, counted, and apoptosis was induced by UV irradiation at 350 mJ. […]
Naïve CD4 T cells were isolated first by sorting with MACS® CD4^+ beads (Miltenyi Biotech, Auburn, Calif.) according to manufacturer's instructions and then by fluorescence activated cell sorting (FACS) using a MoFlo™, Vantage, or Influx™ cell sorter for CD25^−CD44^lowCD62L^high cells using allophycocyanin (APC)-conjugated anti-CD25 monoclonal antibody (mAb) (clone PC61.5), FITC-conjugated CD62L mAb (clone MEL-14), and PE-Cy5-conjugated CD44 mAb (clone IM7) (all from eBioscience™, San Diego, Calif.). […]
(ELISA stands for enzyme-linked immunosorbent assay.)

Test [2] relates to Naïve CD4 T-cells. Nature of the test: qPCR of lineage genes in naïve CD4 T-cells cultured with DCCM. From the text:
(§1) Naïve CD4 T cells were isolated first by sorting with MACS® CD4^+ beads (Miltenyi Biotech, Auburn, Calif.) according to manufacturer's instructions and then by fluorescence activated cell sorting (FACS) using a MoFlo™, Vantage, or Influx™ cell sorter for CD25^−CD44^lowCD62L^high cells using allophycocyanin (APC)-conjugated anti-CD25 monoclonal antibody (mAb) (clone PC61.5), FITC-conjugated CD62L mAb (clone MEL-14), and PE-Cy5-conjugated CD44 mAb (clone IM7) (all from eBioscience™, San Diego, Calif.). Cells were grown in complete IMDM (Gibco, Carlsbad, Calif.) supplemented with 10% FBS, 100 μg/mL penicillin, 100 μg/mL streptomycin, 2 mM L-glutamine, 10 mM HEPES, and 1 nM sodium pyruvate, and activated on 48-well tissue-culture plates which had been coated with 4 μg anti-CD3 (clone 2C11) for 3 h at 37° C., then washed 3 times with PBS. Cultures were supplemented with 2 μg/mL anti-CD28 (clone 37-51, a kind gift from J. Allison, Sloan-Kettering Cancer Center) and anti-IL-4 ascites (clone 11B11, a kind gift from T. Moran, Mount Sinai School of Medicine, ATCC number HB188) at 1:500. mAbs 2C11 and 37-51 were purified from hybridoma supernatants by BioXCell Company (West Lebanon, N.H.). When cultured with conditioned medium (CM) from BMDC, T cells were grown in 1:1 CM:fresh complete IMDM. […]
T cells cultured for 48 hours under the indicated conditions were lysed and RNA isolated by TRIzol® extraction (Invitrogen) according to manufacturer's instructions. […] Quantitative real-time, reverse transcription polymerase chain reaction (qPCR) was conducted on an ABI Prism® 7900 instrument (Applied Biosystems, Foster City, Calif.) with primer pairs and probes as follows. […]
Quantitative PCR was performed using TaqMan® quantitative PCR Master Mix at a concentration of 1× (Applied Biosystems). […] “Fold inductions” were calculated using the ΔΔCt method relative to T cells activated under neutral conditions (No cytokines or CM). […]
For orientation: Real-time PCR tracks product formation cycle by cycle.

In test [3] the test system is Naïve CD4 T-cells. Nature of the test: CD4 T-cells in DCCM re-plated on anti-CD3 for 48 h with neutralizing mAbs or IL-23, cytokines by ELISA. Conditions: re-stimulation for 48 h in the presence of 10 ng/mL IL-23.
Description: as §1, with “PBS.” for “PBS. Cultures were supplemented with 2 μg/mL anti-CD28 (clone 37-51, a kind gift from J. Allison, Sloan-Kettering Cancer Center) and anti-IL-4 ascites (clone 11B11, a kind gift from T. Moran, Mount Sinai School of Medicine, ATCC number HB188) at 1:500. mAbs 2C11 and 37-51 were purified from hybridoma supernatants by BioXCell Company (West Lebanon, N.H.). When cultured with conditioned medium (CM) from BMDC, T cells were grown in 1:1 CM:fresh complete IMDM.”
Next, naïve CD4 T-cells were isolated from C57BL/6J mice and activated with 4 μg anti-CD3 and 2 μg/mL anti-CD28 plus anti-IL-4 with CM from C57BL/6J (WT) BMDC that had phagocytosed apoptotic LPS B cell-blasts. […] Cytokines were quantified in supernatants by ELISA. […]

Turning to curdlan, the “induction of IL-17+ CD4 T-cells” value with Naïve CD4 T-cells [1] is reported as “able to direct induction of IL-17^+ CD4 T-cells”.
On to TGF-β, for which the “Foxp3 mRNA induction” value with Naïve CD4 T-cells [2] (quantitative RT-PCR) was “highest induction”.

B1: IL-12: cytokine (eBioscience), 10 ng/mL (protein, UniProt P43431 23-215; P43432 23-335, looked up)
Interleukin-12 subunit alpha: RVIPVSGPARCLSQSRNLLKTTDDMVKTAREKLKHYSCTAEDIDHEDITRDQTSTLKTCLPLELHKNESCLATRETSSTTRGSCLPPQKTSLMMTLCLGSIYEDLKMYQTEFQAINAALQNHNHQQIILDKGMLVAIDELMQSLNHNGETLRQKPPVGEADPYRVKMKLCILLHAFSTRVVTINRVMGYLSSA
Interleukin-12 subunit beta: MWELEKDVYVVEVDWTPDAPGETVNLTCDTPEEDDITWTSDQRHGVIGSGKTLTITVKEFLDAGQYTCHKGGETLSHSHLLLHKKENGIWSTEILKNFKNKTFLKCEAPNYSGRFTCSWLVQRNMDLKFNIKSSSSSPDSRAVTCGMASLSAEKVTLDQRDYEKYSVSCQEDVTCPTAEETLPIELALEARQQNKYENYSTSFFIRDIIKPDPPKNLQMKPLKNSQVEVSWEYPDSWSTPHSYFSLKFFVRIQRKKEKMKETEEGCNQKGAFLVEKTSTEVQCKGGNVCVQAQDRYYNSSCSKWACVPCRVRS
In the case of B1, the “expression of TH1 lineage-specific transcription factor T-bet” value in the test with Naïve CD4 T-cells [2] (qPCR after 48 hours of culture) is “expressed the TH1 lineage-specific transcription factor”.

B2: IL-23: cytokine (eBioscience), 10 ng/mL (protein, UniProt Q9EQ14 22-196; P43432 23-335, looked up)
Interleukin-23 subunit alpha: VPRSSSPDWAQCQQLSRNLCMLAWNAHAPAGHMNLLREEEDEETKNNVPRIQCEDGCDPQGLKDNSQFCLQRIRQGLAFYKHLLDSDIFKGEPALLPDSPMEQLHTSLLGLSQLLQPEDHPRETQQMPSLSSSQQWQRPLLRSKILRSLQAFLAIAARVFAHGAATLTEPLVPTA
Interleukin-12 subunit beta: MWELEKDVYVVEVDWTPDAPGETVNLTCDTPEEDDITWTSDQRHGVIGSGKTLTITVKEFLDAGQYTCHKGGETLSHSHLLLHKKENGIWSTEILKNFKNKTFLKCEAPNYSGRFTCSWLVQRNMDLKFNIKSSSSSPDSRAVTCGMASLSAEKVTLDQRDYEKYSVSCQEDVTCPTAEETLPIELALEARQQNKYENYSTSFFIRDIIKPDPPKNLQMKPLKNSQVEVSWEYPDSWSTPHSYFSLKFFVRIQRKKEKMKETEEGCNQKGAFLVEKTSTEVQCKGGNVCVQAQDRYYNSSCSKWACVPCRVRS
As for B2, in the test on Naïve CD4 T-cells [3], the “levels of IL-17 produced” value is listed as “only slightly increased the levels of IL-17 produced” and the “total levels of IL-10 produced” value is given as “markedly impaired”.
